Source: patent publication US20210033615A1 (DEUTSCHES KREBSFORSCHUNGSZENTRUM STIFTUNG DOES OFFENTLICHEN …, published 2021)

Key:
[1] = molecular target: T1, PFKFB4 tagged at the C-terminal with the Large BiT (human, UniProt Q16877 1-469); assay: NanoBiT luminescence complementation in HEK293 cells; counted positive if the signal is at least 10-fold that of the negative control
T1 construct: Expressed in HEK293 cells for the NanoBiT assay; also called C-ter[LgBiT]PFKFB4; tagged PFKFB4; not shown: Large BiT (LgBiT) tag and any linker from the pLVX1.1-C[TK/LgBiT]; NanoBiT vector
From the text: The NanoBiT® assay from Promega is widely used to investigate protein-protein interactions. The NanoBiT Assay is described in detail in Dixon et al., (2016) “NanoLuc Complementation Reporter Optimized for Accurate Measurement of Protein Interactions in Cells” (ACS Chem. Biol., 11, 400-408; which is incorporated herein by reference in its entirety). The inventors adapted this method to develop a cellular screening assay in order to investigate the interaction of PFKFB4 with FBXO28. In that respect, both genes were cloned into pLVX vectors containing the four NanoBiT® versions (pLVX1.1-N[TK/LgBiT], pLVX2.1-N[TK/SmBiT], pLVX1.1-C[TK/LgBiT] and pLVX2.1-C[TK/SmBiT]), allowing the small and large BiT tags to be at the N- or C-terminal of both proteins of interest. As negative control, a vector containing a HaloTag protein cloned to the small BiT was used in combination with the large BiT cloned to either FBXO28 or PFKFB4.
All vectors were transfected in HEK293 cells and the combinations were tested as depicted in FIG. 7A. The luminescent signal was detected with the Nano-Glo® Luciferase Assay System from Promega. The interaction was considered positive if the signal was at least 10-fold of the respective negative control. […]

[2] = molecular target: T2, 6-phosphofructo-2-kinase/fructose-2,6-biphosphatase 4 (PFKFB4) (human, UniProt Q16877 1-469); assay: NanoBiT competition in HEK293 cells
T2 construct: It was expressed inside cells (GSCs, HEK293) or in yeast two-hybrid; any tags in the coIP and Y2H are not described; also called untagged PFKFB4
T2 sequence (Q16877 whole entry): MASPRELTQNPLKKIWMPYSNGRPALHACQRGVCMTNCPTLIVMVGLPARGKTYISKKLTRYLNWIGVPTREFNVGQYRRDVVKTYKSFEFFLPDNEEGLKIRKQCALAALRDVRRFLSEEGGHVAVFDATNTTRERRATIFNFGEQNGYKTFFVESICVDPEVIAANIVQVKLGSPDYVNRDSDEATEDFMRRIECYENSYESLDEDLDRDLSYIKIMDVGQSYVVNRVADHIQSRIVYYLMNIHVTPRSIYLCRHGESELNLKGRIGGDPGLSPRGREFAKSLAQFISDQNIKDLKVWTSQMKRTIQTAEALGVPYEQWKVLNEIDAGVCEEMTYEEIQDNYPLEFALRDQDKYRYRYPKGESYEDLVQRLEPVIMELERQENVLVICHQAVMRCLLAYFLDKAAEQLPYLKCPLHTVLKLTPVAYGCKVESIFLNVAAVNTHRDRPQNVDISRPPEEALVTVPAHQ

T1 sequence (Q16877 whole entry): as above

binding result [1]: binds | binding result [2]: binds
B1: FBXO28 tagged at the N-terminal with the small BiT (other)
chain: MAAAAEERMAEEGGGGQGDGGSSLASGSTQRQPPPPAPQHPQPGSQALPAPALAPDQLPQNNTLVALPIVAIENILSFMSYDEISQLRLVCKRMDLVCQRMLNQGFLKVERYHNLCQKQVKAQLPRRESERRNHSLARHADILAAVETRLSLLNMTFMKYVDSNLCCFIPGKVIDEIYRVLRYVNSTRAPQRAHEVLQELRDISSMAMEYFDEKIVPILKRKLPGSDVSGRLMGSPPVPGPSAALTTMQLFSKQNPSRQEVTKLQQQVKTNGAGVTVLRREISELRTKVQEQQKQLQDQDQKLLEQTQIIGEQNARLAELERKLREVMESAVGNSSGSGQNEESPRKRKKATEAIDSLRKSKRLRNRK
notes: Expressed in HEK293 cells for the NanoBiT assay; also called N-ter[SmBiT]FBXO28; tagged FBXO28; not shown: Small BiT (SmBiT) tag and any linker from the pLVX2.1-N[TK/SmBiT]; NanoBiT vector
